Measured values published in paper PMC10397247.

Experiments:
Test in all cases: two-hybrid library CCmax;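 also: natural log of median RNA to DNA barcode read ratio; higher means stronger binding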
4H2948-AA = molecular target: T1, 4H2948-AA
T1 chain: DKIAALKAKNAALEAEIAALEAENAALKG

4H2991-AA = molecular target: T2, 4H2991-AA; settings: mean of both orientations
T2 chain: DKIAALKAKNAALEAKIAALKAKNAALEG

4H3029-AA = molecular target: T3, 4H3029-AA; settings: mean of both orientations
T3 chain: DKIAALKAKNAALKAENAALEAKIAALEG

4H3066-AA = molecular target: T4, 4H3066-AA; settings: mean of both orientations
T4 chain: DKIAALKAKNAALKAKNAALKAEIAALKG

4H3102-AA = molecular target: T5, 4H3102-AA; settings: mean of both orientations
T5 chain: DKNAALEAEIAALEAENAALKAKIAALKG

4H3121-AA = molecular target: T6, 4H3121-AA; settings: mean of both orientations
T6 chain: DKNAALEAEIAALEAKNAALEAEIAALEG

4H3417-AA = molecular target: T7, 4H3417-AA; settings: mean of both orientations
T7 chain: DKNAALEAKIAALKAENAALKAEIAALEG

4H3446-AA = molecular target: T8, 4H3446-AA; settings: mean of both orientations
T8 chain: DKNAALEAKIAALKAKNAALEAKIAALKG

4H3591-AA = molecular target: T9, 4H3591-AA; settings: mean of both orientations
T9 chain: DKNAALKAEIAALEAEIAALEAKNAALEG

4H3628-AA = molecular target: T10, 4H3628-AA; settings: mean of both orientations
T10 chain: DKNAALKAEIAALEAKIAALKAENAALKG

4H3666-AA = molecular target: T11, 4H3666-AA; settings: mean of both orientations
T11 chain: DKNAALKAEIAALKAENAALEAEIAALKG

4H3709-AA = molecular target: T12, 4H3709-AA; settings: mean of both orientations
T12 chain: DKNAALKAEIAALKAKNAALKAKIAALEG

4H391-AA = molecular target: T13, 4H391-AA
T13 chain: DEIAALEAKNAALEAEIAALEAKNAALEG

4H3920-AA = molecular target: T14, 4H3920-AA; settings: mean of both orientations
T14 chain: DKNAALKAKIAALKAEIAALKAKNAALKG

4H3939-AA = molecular target: T15, 4H3939-AA; settings: mean of both orientations
T15 chain: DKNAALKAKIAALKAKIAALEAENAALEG

4H428-AA = molecular target: T16, 4H428-AA; settings: mean of both orientations
T16 chain: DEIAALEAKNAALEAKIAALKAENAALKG

4H478-AA = molecular target: T17, 4H478-AA; settings: mean of both orientations
T17 chain: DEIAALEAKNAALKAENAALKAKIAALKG

4H497-AA = molecular target: T18, 4H497-AA; settings: mean of both orientations
T18 chain: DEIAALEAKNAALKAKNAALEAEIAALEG

4H656-AA = molecular target: T19, 4H656-AA; settings: mean of both orientations
T19 chain: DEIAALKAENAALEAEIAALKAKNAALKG

4H675-AA = molecular target: T20, 4H675-AA; settings: mean of both orientations
T20 chain: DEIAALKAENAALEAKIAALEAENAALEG

4H971-AA = molecular target: T21, 4H971-AA; settings: mean of both orientations
T21 chain: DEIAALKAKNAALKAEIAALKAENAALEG

B1: 4H2948-AA (peptide)
chain: DKIAALKAKNAALEAEIAALEAENAALKG
interaction score (4H2948-AA): -0.0114 | interaction score (4H2991-AA): -0.169 | interaction score (4H3029-AA): -1.4 | interaction score (4H3066-AA): -1.57 | interaction score (4H3102-AA): 0.56 | interaction score (4H3121-AA): -1.15 | interaction score (4H3417-AA): 0.478 | interaction score (4H3446-AA): -0.524 | interaction score (4H3591-AA): -1.3 | interaction score (4H3628-AA): -0.855 | interaction score (4H3666-AA): -1.69 | interaction score (4H3709-AA): -1.17 | interaction score (4H391-AA): -1.39 | interaction score (4H3920-AA): -1.35 | interaction score (4H3939-AA): -1.77 | interaction score (4H428-AA): 1.95 | interaction score (4H478-AA): -1.62 | interaction score (4H497-AA): -1.54 | interaction score (4H656-AA): 0.924 | interaction score (4H675-AA): -0.414 | interaction score (4H971-AA): -0.608
